The text below walks through data of paper PMC6282759, “FlhF(T368A) modulates motility in the bacteriophage carrier state of Campylobacter jejuni” (Molecular Microbiology, 2018).

The subject of this data set is Nc1nc2c(ncn2[C@@H]2O[C@H](COP(=O)(O)OP(=O)(O)OP(=O)(O)O)[C@@H](O)[C@H]2O)c(=O)[nH]1. Kind of data set: purified protein. As to conditions: 42 °C, Tris buffer, MgCl2, GTP 0.05-1 mM.

Turning to “FlhF (Campylobacter jejuni subsp. jejuni NCTC 11168 = ATCC 700819)”, the Km amounted to 75 µM and the catalytic constant (kcat) came out at 0.0115 s⁻¹.
